Reference: article PMC10470887

Biological target: SpGrx3 R47F mutant (Sphingomonas sp. PAMC 26621)
Test: SEC; Superdex 200 prep grade XK16 column; 50 mM Tris·HCl, 50 mM NaCl, pH 8.0; molecular weight against a protein standard mix

SpGrx3 R47F mutant (enzyme) gave a stoichiometry N of 2.
